Source: patent publication US20140329289, “ANTI-FH APTAMERS, METHOD FOR PRODUCING SAME, AND USES THEREOF” (Laboratoire Francais du Fractionnement et des …, published 2014)
Residue numbers refer to the chain shown, from its start.

B1: MaptH1.1 (ssDNA)
DNA: GGGTCAATGCCAGGTCTCGGGCACGGGTCAGGCGGTTATACGGTGCCCATTGTTCTTTATCGGCTCGCAAGCAGTC
B2: FAM1-11 (ssDNA)
DNA: GGGTCAATGCCAGGTCTCGGGGCAGGCGGTTATACGGAGAGCTTCTTACATGGGCCCTATCGGCTCGCAAGCAGTC
B3: FAM1-12 (ssDNA)
DNA: GGGTCAATGCCAGGTCTCACCGGGTCAGGCGGTTATACGGGTGAGGGCAGGTACATACATCGGCTCGCAAGCAGTC
B4: FAM1-13 (ssDNA)
DNA: B3 DNA with A44G
B5: FAM2-1 (ssDNA)
DNA: GGGTCAATGCCAGGTCTCCCGGTTACCGCGCTAAGCTTGGCGATGGTGTTAGTGGCTGATCGGCTCGCAAGCAGTC
B6: FAM2-2 (ssDNA)
DNA: GGGTCAATGCCAGGTCTCCCGGTTACTGCCGTAGTTGTCTTACGGTGGTGTTAGTGGCATCGGCTCGCAAGCAGTC
B7: FAM2-3 (ssDNA)
DNA: GGGTCAATGCCAGGTCTCCCGGTTACCTCCATTGGTGGTGTTAGTGGCTTTGTAGGATATCGGCTCGCAAGCAGTC
B8: FAM2-4 (ssDNA)
DNA: GGGTCAATGCCAGGTCTCCCGGTTACCAGTTGGTGTTTGTGGCTTTGCACGTCTGCATATCGGCTCGCAAGCAGTC
B9: FAM2-5 (ssDNA)
DNA: GGGTCAATGCCAGGTCTCCCGGTTACCAACTATGATAGTATGGTGTTTGTGGCATGATCGGCTCGCAAGCAGTC
B10: FAM2-6 (ssDNA)
DNA: GGGTCAATGCCAGGTCTCCCGGTTACCATCGAGGACGTCGCTTGGTGTTTGTGGCATGATCGGCTCGCAAGCAGTC
B11: FAM2-7 (ssDNA)
DNA: GGGTCAATGCCAGGTCTCCCGGTTACCAAGATCGTTGTTCTTGGTGTTAGTGGCATTCATCGGCTCGCAAGCAGTC
B12: FAM1-3 (ssDNA)
DNA: GGGTCAATGCCAGGTCTCGGACCGCGATGGAGAGGGGTCTGGTGGTTATACGCTATGCATCGGCTCGCAAGCAGTC
B13: FAM3 (ssDNA)
DNA: GGGTCAATGCCAGGTCTCTGAGGCGCAGATGTGGAGGCTTTTACAGGCGGTGCGGAACATCGGCTCGCAAGCAGTC
B14: FAM4 (ssDNA)
DNA: GGGTCAATGCCAGGTCTCCAAAGGGGGGGGTTGGGGGACCGTCCGTTGTTGATCTCACATCGGCTCGCAAGCAGTC
B15: IND1 (ssDNA)
DNA: GGGTCAATGCCAGGTCTCGGTGGGAGGTGAGGTCGTTGGACGGTGGCAGGGGATTTTGATCGGCTCGCAAGCAGTC
B16: FAM1-4 (ssDNA)
DNA: B12 DNA with A21G
B17: FAM1-5 (ssDNA)
DNA: GGGTCAATGCCAGGTCTCGCAGAGGTGCGAGGGGCGGTGGGGTCTGGTGGTTATACGCATCGGCTCGCAAGCAGTC
B18: FAM1-6 (ssDNA)
DNA: GGGTCAATGCCAGGTCTCGAGGAACGTGGGGTCAGGTGGTTATACGCAGGGTACCGGGATCGGCTCGCAAGCAGTC
B19: FAM1-7 (ssDNA)
DNA: GGGTCAATGCCAGGTCTCGGGGGGCCGGTTATACGGGTCAGGCGGTTATACGGTATTCATCGGCTCGCAAGCAGTC
B20: FAM1-8 (ssDNA)
DNA: GGGTCAATGCCAGGTCTCAATCAGAAGGGTCTGGTGGTTATACGTTCATGTATTGGGTATCGGCTCGCAAGCAGTC
B21: FAM1-9 (ssDNA)
DNA: GGGTCAATGCCAGGTCTCGGGGTGCGAGGGTCTGGTGGTTATACGTCGTCACCTCTAGATCGGCTCGCAAGCAGTC
B22: FAM1-10 (ssDNA)
DNA: GGGTCAATGCCAGGTCTCTGGGGGAGGGAGGGTCTGGGGGTTATACGTCACTAGCAAAATCGGCTCGCAAGCAGTC

The binders below were run against T1, Factor H (complement factor H), plasma (Homo sapiens, UniProt P08603 P08603:19-1231) (assay: pulldown; affinity chromatography on aptamer-agarose; 74% of A254 retained and eluted with EDTA; 50 mM MgCl2, 50 mM NaCl, pH 7.5). Details: tags: LFB preparation (Biacore, amine-coupled NHS/EDC on CM5 chip, 5813 RU); Calbiochem 341274 also used in SELEX; label: biotin.
T1 sequence (P08603 19-1231, one chain of several): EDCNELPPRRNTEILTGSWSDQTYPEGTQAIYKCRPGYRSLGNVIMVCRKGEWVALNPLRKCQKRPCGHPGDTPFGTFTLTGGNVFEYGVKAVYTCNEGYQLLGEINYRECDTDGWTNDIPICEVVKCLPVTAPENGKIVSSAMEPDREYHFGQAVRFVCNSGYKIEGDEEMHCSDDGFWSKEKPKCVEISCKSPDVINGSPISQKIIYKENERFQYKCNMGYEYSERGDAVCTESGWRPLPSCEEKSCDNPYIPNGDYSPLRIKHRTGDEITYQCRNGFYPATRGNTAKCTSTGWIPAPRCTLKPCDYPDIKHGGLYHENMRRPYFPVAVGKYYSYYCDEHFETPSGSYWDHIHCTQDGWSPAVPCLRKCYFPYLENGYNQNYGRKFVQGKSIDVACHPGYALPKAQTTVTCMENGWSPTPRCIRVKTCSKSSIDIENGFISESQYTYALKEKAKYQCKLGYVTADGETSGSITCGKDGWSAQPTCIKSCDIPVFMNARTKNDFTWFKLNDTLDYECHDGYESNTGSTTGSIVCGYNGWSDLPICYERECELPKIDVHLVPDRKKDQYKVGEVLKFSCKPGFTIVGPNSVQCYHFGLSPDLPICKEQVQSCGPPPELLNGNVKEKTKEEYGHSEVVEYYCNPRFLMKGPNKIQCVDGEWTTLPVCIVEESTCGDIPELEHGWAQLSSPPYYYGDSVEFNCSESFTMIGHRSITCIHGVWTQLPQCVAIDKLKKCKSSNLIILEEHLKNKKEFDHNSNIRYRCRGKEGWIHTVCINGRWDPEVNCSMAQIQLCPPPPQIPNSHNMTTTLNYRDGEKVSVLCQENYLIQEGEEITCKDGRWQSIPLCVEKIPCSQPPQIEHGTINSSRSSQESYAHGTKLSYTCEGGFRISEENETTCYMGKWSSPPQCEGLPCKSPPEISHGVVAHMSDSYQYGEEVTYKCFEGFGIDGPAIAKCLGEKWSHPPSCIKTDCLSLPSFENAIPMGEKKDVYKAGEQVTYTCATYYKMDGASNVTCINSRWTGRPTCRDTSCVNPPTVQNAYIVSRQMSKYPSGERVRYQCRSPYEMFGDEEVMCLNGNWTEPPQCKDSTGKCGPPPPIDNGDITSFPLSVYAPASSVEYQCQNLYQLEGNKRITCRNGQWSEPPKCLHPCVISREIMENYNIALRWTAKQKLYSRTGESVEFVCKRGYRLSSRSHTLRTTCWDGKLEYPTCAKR
Method: The plasma factor H is eluted with a 50 mM Tris+500 mM EDTA buffer at pH 8.0. The elution peak is collected according to the OD profile.
B1: binds.

Each binder was assayed against T1, Factor H (complement factor H), plasma (assay: SPR; binding stability; 10 mM MgCl2, pH 7.5). Details: tags: LFB preparation (Biacore, amine-coupled NHS/EDC on CM5 chip, 5813 RU); Calbiochem 341274 also used in SELEX.
For B2, the binding signal was 16.9 RU. B3 gave a binding signal of 18.2 RU. B4 gave a binding signal of 30.6 RU. For B5, the binding signal was 29.6 RU. For B6, the binding signal was 22.4 RU. B7 gave a binding signal of 18.2 RU. Binder B8 has a binding signal of 27.6 RU. B9 showed a binding signal of 22.2 RU. Work on B10 yielded a binding signal of 22.1 RU. In the case of B11, the binding signal is reported as 22.1 RU. Binder B12 has a binding signal of 20.9 RU. B13 showed a binding signal of 11.7 RU. With B14 the binding signal was 25.9 RU. B15 gave a binding signal of 20.1 RU. B16 showed a binding signal of 26.2 RU. B17 gave a binding signal of 21.2 RU. Work on B18 yielded a binding signal of 30 RU. Binder B19 has a binding signal of 15.4 RU. B20 was tested, and the binding signal was 36 RU. Work on B21 yielded a binding signal of 57.8 RU. For B22, the binding signal was 73.5 RU.

Each binder was assayed against T1, Factor H (complement factor H), plasma (assay: SPR; rank 2 of 5 truncations; 50 mM NaCl, 50 mM MgCl2, pH 7.5). Details: tags: LFB preparation (Biacore, amine-coupled NHS/EDC on CM5 chip, 5813 RU); Calbiochem 341274 also used in SELEX.
GGGCACGGGTCAGGCGGTTATACGGTGCCCATTGTTCTTT (ssDNA) [MaptH1.1 N19-58]: binds.

What follows are binders tested against T1, Factor H (complement factor H), plasma (assay: SPR; rank 3 of 5 truncations; 50 mM NaCl, 50 mM MgCl2, pH 7.5). Details: tags: LFB preparation (Biacore, amine-coupled NHS/EDC on CM5 chip, 5813 RU); Calbiochem 341274 also used in SELEX.
GGGCACGGGTCAGGCGGTTATACGGTGCCCATTGT (ssDNA) [MaptH1.1 N19-53]: binds.

These binders were tested against T1, Factor H (complement factor H), plasma (assay: SPR; rank 4 of 5 truncations; 50 mM NaCl, 50 mM MgCl2, pH 7.5). Details: tags: LFB preparation (Biacore, amine-coupled NHS/EDC on CM5 chip, 5813 RU); Calbiochem 341274 also used in SELEX.
GGGCACGGGTCAGGCGGTTATACGGTGCCC (ssDNA) [MaptH1.1 N19-48]: binds.

Each binder was assayed against T1, Factor H (complement factor H), plasma (assay: SPR; strongest of the five truncations; 50 mM Tris, 50 mM NaCl, 50 mM MgCl2, pH 7.5; p444 calls the FH recombinant, methods say LFB FH). Details: tags: LFB preparation (Biacore, amine-coupled NHS/EDC on CM5 chip, 5813 RU); Calbiochem 341274 also used in SELEX.
CAGGTCTCGGGCACGGGTCAGGCGGTTATACGGTGCCC (ssDNA) [MaptH1.1 N13-48 (MaptH1.1CSO)]: binds.
